Experimental data reported in article PMC9808371, “Extracellular Galectin 4 Drives Immune Evasion and Promotes T-cell Apoptosis in Pancreatic Cancer” (Cancer Immunology Research, 2022).

Key:
[1] = biological target: T1, human recombinant CD3ε/δ heterodimer (human, UniProt P07766 23-126; P04234 22-105, N-linked glycosylations (sites not given)); assay: SPR; CD3 heterodimers amine-coupled at pH 4 to CM5 chips (mouse CD3ε/δ 3,900 RU, human CD3ε/δ 9,800 RU, human CD3ε/γ 8,900 RU); gal 4 as analyte, 2-fold dilutions 16 to 0.5 μmol/L, 120 s association, 120 s dissociation; 25°C; 10 mmol/L phosphate pH 7.4, 140 mmol/L NaCl, 0.27 mmol/L KCl, 0.05% Tween 20; Biacore T-200; conditions: both partners purified
T1 construct: CD3 epsilon chain, human; CD3 delta chain, human; it is probably made of the extracellular domains with vendor tags (surmise); The vendor's catalogue entry would give them; also called human CD3ε/δ; CD3δ/ε; source: bought: ACROBiosystems, CDD-H52wa-100 μg

[2] = biological target: T2, human recombinant CD3ε/δ heterodimer (human, UniProt P07766 23-126; P04234 22-105, N-linked glycosylations (sites not given)); assay: SPR
T2 chain 1: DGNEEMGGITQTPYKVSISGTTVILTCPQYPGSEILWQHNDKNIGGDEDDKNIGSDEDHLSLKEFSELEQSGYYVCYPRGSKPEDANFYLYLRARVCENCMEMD
T2 chain 2: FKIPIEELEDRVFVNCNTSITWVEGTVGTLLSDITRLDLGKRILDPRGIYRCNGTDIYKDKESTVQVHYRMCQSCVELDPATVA

[3] = biological target: T3, human recombinant CD3ε/γ heterodimer (human, UniProt P07766 23-126; P09693 23-116); assay: SPR
T3 chain 1: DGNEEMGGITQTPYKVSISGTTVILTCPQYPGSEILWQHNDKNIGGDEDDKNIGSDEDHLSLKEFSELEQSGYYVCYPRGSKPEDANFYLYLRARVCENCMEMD
T3 chain 2: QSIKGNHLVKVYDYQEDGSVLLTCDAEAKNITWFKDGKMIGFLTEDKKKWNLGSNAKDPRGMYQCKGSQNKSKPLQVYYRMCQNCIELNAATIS

fold affinity against CD3γ/ε [1]: 10 fold
Kd [2]: ~1 µM
Kd [3]: ~10 µM
B1: human recombinant galectin 4 (natural protein, UniProt P56470 1-323, looked up)
chain: MAYVPAPGYQPTYNPTLPYYQPIPGGLNVGMSVYIQGVASEHMKRFFVNFVVGQDPGSDVAFHFNPRFDGWDKVVFNTLQGGKWGSEERKRSMPFKKGAAFELVFIVLAEHYKVVVNGNPFYEYGHRLPLQMVTHLQVDGDLQLQSINFIGGQPLRPQGPPMMPPYPGPGHCHQQLNSLPTMEGPPTFNPPVPYFGRLQGGLTARRTIIIKGYVPPTGKSFAINFKVGSSGDIALHINPRMGNGTVVRNSLLNGSWGSEEKKITHNPFGPGQFFDLSIRCGLDRFKVYANGQHLFDFAHRLSAFQRVDTLEIQGDVTLSYVQI
notes: galectin 4 (LGALS4), Homo sapiens, cDNA NM_006149.4 recloned from pcDNA3.1-C-(k)DYK into pET-His1a (NcoI + Acc65I); The Hisx6-TEV tag was removed before use; also called gal 4; hgal 4; source: E. coli Rosetta (DE3), purified (NiNTA, tag removal with TEV protease, second NiNTA run); not shown: His6, N-terminal, cleaved
